Assay results from the supplement of paper PMC10899765.

Columns and labels:
Conditions in all cases: 20 nM; 72 h
MCF10A [1] = assay: one-nucleolus phenotype percent effect (relative to siNT 0% and siNOL11 100%); higher = more cells with one nucleolus (ribosome biogenesis inhibition)
Method: (§1)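 After 72 h, cells were fixed and stained with Hoechst and anti-fibrillarin, and nucleoli per nucleus were counted with CellProfiler. Values are plate-adjusted percent effect for the one-nucleolus and 5+ nucleoli phenotypes, normalised to siNT (0%) and to the positive controls siNOL11 or siKIF11 (100%), as the mean of biological triplicates. Percent viability is the nuclei count relative to siNT.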

MCF10A [2] = assay: 5+ nucleoli phenotype percent effect (relative to siNT 0% and siKIF11 100%); higher = more cells with five or more nucleoli
Method: as §1

MCF10A [3] = assay: percent viability (nuclei count relative to siNT); higher = more viable cells
Method: as §1

Sequence | one-nucleolus phenotype percent effect (MCF10A [1]) [%] | 5+ nucleoli phenotype percent effect (MCF10A [2]) [%] | percent viability (MCF10A [3]) [%]
UCCUGCCUUCCUCUGCACCAG [hsa-miR-6747-3p] | 16 | -28.9 | 27
UCCUGCGCGUCCCAGAUGCCC [hsa-miR-1539] | 15.6 | -2.94 | 60.9
UCCUGCGUAGGAUCUGAGGAGU [hsa-miR-3193] | -18.1 | 10.1 | 58.9
UCCUGUACUGAGCUGCCCCGAG [hsa-miR-486-5p] | 4.53 | 1.79 | 41.3
UCCUGUCCCUGUCUCCUACAG [hsa-miR-6748-3p] | -15.9 | 17 | 47
UCCUGUCUUUCCUUGUUGGAGC [hsa-miR-5699] | -26.2 | 51.3 | 186
UCCUUCAUUCCACCGGAGUCUG [hsa-miR-205-5p] | 21 | -17.6 | 67.4
UCCUUCUGCUCCGUCCCCCAG [hsa-miR-1237-3p] | -0.823 | 6.7 | 52.7
UCCUUUGCCUAUUCUAUUUAAG [hsa-miR-3121-5p] | -3.46 | 17 | 56.5
UCGACAGCACGACACUGCCUUC [hsa-miR-196b-3p] | 2.46 | 5.68 | 65.2
UCGACCGGACCUCGACCGGCU [hsa-miR-1307-5p] | -17.3 | 13.2 | 78.8
UCGAGGACUGGUGGAAGGGCCUU [hsa-miR-3131] | 8.15 | -6.74 | 47.9
UCGAGGAGCUCACAGUCU [hsa-miR-151b] | 11.9 | 10.8 | 57.3
UCGAGGAGCUCACAGUCUAGU [hsa-miR-151a-5p] | -6 | 9.84 | 86.8
UCGCAGACAGGGACACAUGGAGA [hsa-miR-6767-5p] | -5.76 | 0.353 | 39
UCGCCUCCUCCUCUCCC [hsa-miR-1281] | 10.9 | -24.6 | 60.9
UCGCGCCCCGGCUCCCGUUC [hsa-miR-1292-3p] | -6.7 | 9.03 | 64.3
UCGCGGUUUGUGCCAGAUGACG [hsa-miR-579-5p] | -22.2 | 41.8 | 64.6
UCGGAUCCGUCUGAGCUUGGCU [hsa-miR-127-3p] | 14.4 | -26.8 | 41.5
UCGGCCUGACCACCCACCCCAC [hsa-miR-1234-3p] | -20.1 | 54.9 | 75.7
UCGGCCUGGGGAGGAGGAAGGG [hsa-miR-7107-5p] | -28.2 | 26.1 | 77.4
UCGGCUCUCUCCCUCACCCUAG [hsa-miR-6741-3p] | 9.37 | -4.11 | 33.2
UCGGGCCUGGGGUUGGGGGAGC [hsa-miR-6749-5p] | -10.1 | 21.9 | 37.7

Sequence | one-nucleolus phenotype percent effect (MCF10A [1]) [%] | 5+ nucleoli phenotype percent effect (MCF10A [2]) [%] | percent viability (MCF10A [3]) [%]
UCGGGCGCAAGAGCACUGCAGU [hsa-miR-6499-5p] | 0.719 | -9.6 | 43.5
UCGGGGAGUCUGGGGUCCGGAAU [hsa-miR-6889-5p] | 6.17 | 3.52 | 30.7
UCGGGGAUCAUCAUGUCACGAGA [hsa-miR-542-5p] | 1.02 | 30.4 | 81.9
UCGGGGCAUGGGGGAGGGAGGCUGG [hsa-miR-6775-5p] | -21.8 | 35.1 | 57.8
UCGUACCGUGAGUAAUAAUGCG [hsa-miR-126-3p] | 5.16 | -0.677 | 30.2
UCGUAUCAGAGAUUCCAGACAC [hsa-miR-6506-3p] | 5.43 | -11.2 | 85.1
UCGUGCAUAUAUCUACCACAU [hsa-miR-4536-3p] | 2.78 | 0.0637 | 49.3
UCGUGGCCUGGUCUCCAUUAU [hsa-miR-1204] | -7.25 | 2.14 | 48.3
UCGUGUCCCUCUUGUCCACAG [hsa-miR-6774-3p] | -27 | 58.8 | 70
UCGUGUCUUGUGUUGCAGCCGG [hsa-miR-187-3p] | -7.21 | -1.49 | 87.7
UCGUUUGCCUUUUUCUGCUU [hsa-miR-1282] | -8.15 | 5.62 | 84.2
UCUAAAGACUAGACUUCGCUAUG [hsa-miR-4744] | -22 | 32 | 106
UCUACAAAGGAAAGCGCUUUCU [hsa-miR-1283] | -26.4 | 29.7 | 148
UCUACAGUGCACGUGUCUCCAGU [hsa-miR-139-5p] | -8.78 | -2.1 | 67.5
UCUAGAAAUGCAUGACCCACC [hsa-miR-6508-5p] | -15.2 | 17.2 | 112
UCUAGAGGAAGCACUUUCUGUUU [hsa-miR-520g-5p] | -24.2 | 34.9 | 67.5
UCUAGGCUGGUACUGCUGA [hsa-miR-645] | -11.5 | 7.45 | 59.5
UCUAGUAAGAGUGGCAGUCGA [hsa-miR-628-3p] | -7.59 | 31.5 | 55.8
UCUAGUGCGGGCGUUCCCG [hsa-miR-6080] | -6.26 | 23.2 | 85.3
UCUAUACAGACCCUGGCUUUUC [hsa-miR-1284] | -16.5 | 31.3 | 75.8
UCUAUUCCCCACUCUCCCCAG [hsa-miR-6731-3p] | -0.0733 | -13.6 | 32.5
UCUCACACAGAAAUCGCACCCGU [hsa-miR-342-3p] | -2.78 | -4.22 | 78.4
